The record followed here is publication PMC3835959 (Cell reports, 2013).

One may read the Kd as the concentration at which binding is half-saturated. A higher Kd goes with lower affinity. Usually stoichiometry N stands for the number of molecules, sites or subunits per partner or assembly.

B1: CesAB–EspA heterodimeric chaperone–substrate complex (complex)
chain 1: MSIVSQTRNKELLDKKIRSEIEAIKKIIAEFDVVKESVNELSEKAKTDPQAAEKLNKLIEGYTYGEERKLYDSALSKIEKLIETLSPARSKSQSTMNQRNRNNRKIV
chain 2: MDTSTTASVASANASTSTSMAYDLGSMSKDDVIDLFNKLGVFQAAILMFAYMYQAQSDLSIAKFADMNEASKESTTAQKMANLVDAKIADVQSSSDKNAKAQLPDEVISYINDPRNDITISGIDNINAQLGAGDLQTVKAAISAKANNLTTTVNNSQLEIQQMSNTLNLLTSARSDMQSLQYRTISGISLGK
B2: CesAB^Y64A/R68A–EspA complex (complex)
chain 1: B1 chain 1 with Y64A, R68A
chain 2: B1 chain 2
B3: EscN ATPase, full-length, hexameric (enzyme)
chain: MISEHDSVLEKYPRIQKVLNSTVPALSLNSSTRYEGKIINIGGTIIKARLPKARIGAFYKIEPSQRLAEVIAIDEDEVFLLPFEHVSGMYCGQWLSYQGDEFKIRVGDALLGRLIDGIGRPMESNIVAPYLPFERSLYAEPPDPLLRQVIDQPFILGVRAIDGLLTCGIGQRIGIFAGSGVGKSTLLGMICNGASADIIVLALIGERGREVNEFLALLPQSTLSKCVLVVTTSDRPALERMKAAFTATTIAEYFRDQGKNVLLMMDSVTRYARAARDVGLASGEPDVRGGFPPSVFSSLPKLLERAGPAPKGSITAIYTVLLESDNVNDPIGDEVRSILDGHIVLTRELAEENHFPAIDIGLSASRVMHNVVTSEHLRAAAECKKLIATYKNVELLIRIGEYTMGQDPEADKAIKNRKLIQNFIQQSTKDISSYEKTIESLFKVVA

Positions count from the first letter of the chain named. Names may count otherwise.

In data set [1] the target is B3. Briefly: NMR titration.
Data set [2] concerns the molecule itself.

Molecule B1 yielded a Kd in data set [1] of around 3000 nM.
Same read-out and setting: the same measure for B2: above 80000 nM.
B3: in data set [2], the “stoichiometry N” value was 6.
